Reference: US12291504B2, “Small molecule inhibition of sulfotransferase SULT1A3” (University of Pittsburgh—Of the Commonwealth System of …, priority 2018, dated 2025)

Test system: Oc1ccc2ccc3cccc4ccc1c2c34
Assay: purified protein, by the assay type
Details: saturating PAPS (500 μM), 25.0 °C
Description: Covalent Tagging of SULT1A3 Cys Constructs. Labeling of the SULT1A3 Cys constructs was performed as described previously (17,18,21). Briefly, 3-maleimido-PROXYL (spin label) or N-cyclohexylmaleimide (diamagnetic control) was added to an enzyme containing solution at 20-fold excess over reactive Cys. Unreacted Cys was monitored using DNTB (17,18,21); reactions were considered complete when >98% of the Cys was labeled. Reaction conditions: SULT1A3 (50 μM, monomer), 3-maleimido-PROXYL or N-cyclohexylmaleimide (1.0 mM), PAP (0.50 mM), KPO4 (50 mM), pH 7.5, 4±2° C. To prepare samples for NMR, reaction mixtures were dialyzed three times against 40 volumes of PAP (0.50 mM), KPO4 (50 mM), pD 7.4, D2O (>95%), 4±2° C.
Initial-Rate Studies. Initial-rate parameters for the labeled or mutant SULT1A3 constructs were determined using a previously described 1-HP assay (25). […] Reactions were monitored via fluorescence change associated with the conversion of 1-HP to 1-HP-S (λex=325 nm, λem=370 nm). Keq for the 1-HP sulfonation reaction is −250. Given the reaction conditions outlined above, ≥99% of 1-HP is converted to 1-HP-S, and ˜0.4% of PAPS is converted to PAP at equilibrium. […] Reaction progress curves were analyzed to obtain initial-rate parameters as described previously (26,27).
Inhibition studies. Inhibition parameters were determined under conditions identical to those described above (see, Initial-Rate Studies) except that [1-HP] was increased to 5.0 μM (˜61×Km) and inhibitor concentration was varied between 0.20-20×Ki. Ki was obtained using a least-squares fit to the following partial inhibition equation (25,28): v=kcat·(Ki+(1/kcat inh)·[I])/(Ki+[I]), where kcat inh is enzyme turnover at saturating substrates and allosteric inhibitor.

## SULT1A3 spin-labeled at Cys 234 (Homo sapiens; K234C)
other: spin label at Cys 234
  Km: 84 (3) nM
  kcat: 1.82 s⁻¹

## SULT1A3 spin-labeled at Cys 198 (Homo sapiens; E198C)
other: spin label at Cys 198
  Km: 88 (2) nM
  kcat: 1.8 s⁻¹

## SULT1A3 spin-labeled at Cys 116 (Homo sapiens; Q116C)
other: spin label at Cys 116
  Km: 87 (3) nM
  kcat: 1.83 s⁻¹
